From publication PMC6921046, “Functional Characterization and Structural Analysis of NADH Oxidase Mutants from Thermus thermophilus HB27: Role of Residues 166, 174, and 194 in the Catalytic Properties and Thermostability” (Microorganisms, 2019)

Experiments:
Experiment in all cases: purified protein
purified protein [1] = substrate: Cc1cc2nc3c(=O)[nH]c(=O)nc-3n(C[C@H](O)[C@H](O)[C@H](O)COP(=O)(O)O)c2cc1C; format: biochemical, Thermus thermophilus; conditions: 10 µM NADH, pH 7, 25 °C, exogenous flavin, varied: cofactor
purified protein [2] = substrate: Cc1cc2nc3c(=O)[nH]c(=O)nc-3n(C[C@H](O)[C@H](O)[C@H](O)COP(=O)(O)OP(=O)(O)OC[C@H]3O[C@@H](n4cnc5c(N)ncnc54)[C@H](O)[C@@H]3O)c2cc1C; format: biochemical, Thermus thermophilus; conditions: 10 µM NADH, pH 7, 25 °C, exogenous flavin, varied: cofactor
purified protein [3] = substrate: NC(=O)C1=CN([C@@H]2O[C@H](COP(=O)(O)OP(=O)(O)OC[C@H]3O[C@@H](n4cnc5c(N)ncnc54)[C@H](O)[C@@H]3O)[C@@H](O)[C@H]2O)C=CC1; format: biochemical, Thermus thermophilus; conditions: 50 µM FAD, pH 7, 25 °C
purified protein [4] = substrate: Cc1cc2nc3c(=O)[nH]c(=O)nc-3n(C[C@H](O)[C@H](O)[C@H](O)CO)c2cc1C; conditions: 10 µM NADH, pH 7, 25 °C, exogenous flavin, varied: cofactor
[5] = authors' cloned wild type, apparent
[6] = authors' cloned wild type K166/H174/Y194, apparent

B1: Tt27-NOX (Thermus thermophilus HB27; H194Y) (protein)
chain: MEATLPVLDAKTAALKRRSIRRYRKDPVPEGLLREILEAALRAPSAWNLQPWRIVVVRDPATKRALREAAFGQAHVEEAPVVLVLYADLEDALAHLDEVIHPGVQGERREAQKQAIQRAFAAMGQEARKAWASGQSYILLGYLLLLLEAYGLGSVPMLGFDPERVKAILGLPSHAAIPALVALGYPAEEGYPSYRLPLERVVLWR
notes: Recombinant, pET22b, E. coli BL21(DE3), heat shock plus PEI-Ag/DS-Ag; homodimer, ~27 kDa monomer
- Km (purified protein [1]; K166/H174/H194, apparent): 45 ± 2.3 µM
- Km (purified protein [1]; [5]): 43 ± 2.2 µM
- Km (purified protein [2]; K166/H174/H194, apparent): 46 ± 2.3 µM
- Km (purified protein [2]; [5]): 34 ± 1.7 µM
- Km (purified protein [3]; K166/H174/H194, apparent): 1.3 ± 0.06 µM
- kcat (purified protein [3]; K166/H174/H194, apparent): 27.2 ± 1.4 s⁻¹
- kcat/Km (purified protein [3]; K166/H174/H194, apparent): 2.1e+07 ± 1.1e+06 M⁻¹ s⁻¹
- Km (purified protein [3]; [6]): 1.6 ± 0.1 µM
- kcat (purified protein [3]; [6]): 23.3 ± 1.2 s⁻¹
- kcat/Km (purified protein [3]; [6]): 1.46e+07 ± 70000 M⁻¹ s⁻¹
- Km (purified protein [4]; K166/H174/H194, apparent): 68.7 ± 3.4 µM
- Km (purified protein [4]; [5]): 69.7 ± 3.5 µM

B2: Tt27-NOX (Thermus thermophilus HB27; H174R/H194Y) (protein)
chain: MEATLPVLDAKTAALKRRSIRRYRKDPVPEGLLREILEAALRAPSAWNLQPWRIVVVRDPATKRALREAAFGQAHVEEAPVVLVLYADLEDALAHLDEVIHPGVQGERREAQKQAIQRAFAAMGQEARKAWASGQSYILLGYLLLLLEAYGLGSVPMLGFDPERVKAILGLPSRAAIPALVALGYPAEEGYPSYRLPLERVVLWR
notes: as for B1
- Km (purified protein [1]; K166/R174/Y194, apparent): 15 ± 0.8 µM
- Km (purified protein [2]; K166/R174/Y194, apparent): 127 ± 6.4 µM
- Km (purified protein [3]; K166/R174/Y194, apparent): 1.9 ± 0.1 µM
- kcat (purified protein [3]; K166/R174/Y194, apparent): 8.6 ± 0.4 s⁻¹
- kcat/Km (purified protein [3]; K166/R174/Y194, apparent): 4.5e+06 ± 220000 M⁻¹ s⁻¹
- Km (purified protein [4]; K166/R174/Y194, apparent): 60 ± 3 µM

B3: Tt27-NOX (Thermus thermophilus HB27; H194Y/K166R) (protein)
chain: MEATLPVLDAKTAALKRRSIRRYRKDPVPEGLLREILEAALRAPSAWNLQPWRIVVVRDPATKRALREAAFGQAHVEEAPVVLVLYADLEDALAHLDEVIHPGVQGERREAQKQAIQRAFAAMGQEARKAWASGQSYILLGYLLLLLEAYGLGSVPMLGFDPERVRAILGLPSHAAIPALVALGYPAEEGYPSYRLPLERVVLWR
notes: as for B1
- Km (purified protein [1]; R166/H174/Y194, apparent): 27 ± 1.4 µM
- Km (purified protein [2]; R166/H174/Y194, apparent): 30 ± 1.5 µM

B4: R166/R174/H194 variant (Tt8-NOX variant) (Thermus thermophilus HB8; H174R) (protein)
chain: MEATLPVLDAKTAALKRRSIRRYRKDPVPEGLLREILEAALRAPSAWNLQPWRIVVVRDPATKRALREAAFGQAHVEEAPVVLVLYADLEDALAHLDEVIHPGVQGERREAQKQAIQRAFAAMGQEARKAWASGQSYILLGYLLLLLEAYGLGSVPMLGFDPERVRAILGLPSRAAIPALVALGYPAEEGYPSHRLPLERVVLWR
notes: pET22b, E. coli BL21(DE3); homodimer, ~27 kDa monomer
- Km (purified protein [1]; R166/R174/H194, apparent): 23.6 ± 1 µM
- Km (purified protein [2]; R166/R174/H194, apparent): 31.9 ± 1.4 µM
- Km (purified protein [3]; R166/R174/H194, apparent): 1.8 ± 0.1 µM
- kcat (purified protein [3]; R166/R174/H194, apparent): 15.1 ± 0.8 s⁻¹
- kcat/Km (purified protein [3]; R166/R174/H194, apparent): 8.4e+06 ± 420000 M⁻¹ s⁻¹
- Km (purified protein [4]; R166/R174/H194, apparent): 50.8 ± 2.6 µM
